How the values were obtained:
CD8 CAR T cells = assay type: cell-based, murine
[1] = test system: CD19-specific CAR T cells; assay type: cell-based; settings: recombinant murine IFNβ in IL2
Protocol: FIGS. 8A-8D. CD19 CAR T cells treated with IFNβ in vitro. EGFRvIII-specific CAR T cells (with the scFv 139) and CD19-specific CAR T cells (with the scFv FMC63) were cultured in IL2 in the absence or presence of recombinant murine IFNβ, and CAR expression on the surface was measured using Biotin-Protein L and recognized with streptavidin-PE (Protein L+SA PE). Representative staining is shown in FIG. 8A, and the mean of three technical replicates was quantified in FIG. 8B. FIG. 8C: Representative expression of the activation markers CD25 and CD69 were shown for CAR T cells cultured as in FIG. 8A. FIG. 8D: Inhibitory receptor expression (PD1, LAG3, and TIM3) was quantified on CD8 CAR T or UTD cells cultured as in FIG. 8A. Average expression of three technical replicates is shown.

B1: recombinant IFNβ: recombinant murine interferon β added to CAR T cell cultures (protein, UniProt P01575 22-182, looked up)
Interferon beta: INYKQLQLQERTNIRKCQELLEQLNGKINLTYRADFKIPMEMTEKMQKSYTAFAIQEMLQNVFLVFRNNFSSTGWNETIVVRLLDELHQQTVFLKTVLEEKQEERLTWEMSSTALHLKSYYWRVQRYLKLMKYNSYAWMVVRAEIFRNFLIIRRLTRNFQN
CAR expression on the surface of transduced CD8 T cells (CD8 CAR T cells): dose-dependent increase was observed in CAR expression | expression of the exhaustion markers Lag3, PD1, and Tim 3 (CD8 CAR T cells): dose dependent increase in expression of the exhaustion markers Lag3, PD1, and Tim 3 | proportion of AnnexinV positive apoptotic cells (CD8 CAR T cells): dose-dependent increase in the proportion of AnnexinV positive apoptotic cells | proportion of triple positive cells (Lag3, PD1, Tim3) (CD8 CAR T cells): dramatically increased by IFNβ between 0 and 1 ng/mL, and plateaued at higher doses | CAR expression on the surface of CD19-specific CAR T cells [1]: promoted higher expression levels of the CAR molecule | activation phenotype (CD25, CD69) of CD19-specific CAR T cells [1]: supported an activated phenotype | inhibitory receptor expression of CD19-specific CAR T cells over untransduced cells [1]: not associated with increased levels of inhibitory receptor expression
